{"source": "paper PMC10743472", "biological_target": "CLPP, ATP-dependent Clp protease proteolytic subunit, mitochondrial (mouse (endogenous in mouse tissues)) (UniProt O88696)", "experiment": "native gel or EMSA; complexome profiling: mitochondria of WT and CLPP-null mouse testis, brain and heart (sucrose gradients), solubilised with digitonin, blue native electrophoresis on a 3 to 18% gradient gel, 48 slices, label-free mass spectrometry; co-migration read from the profiles", "data": [{"substance": "CLPP, ATP-dependent Clp protease proteolytic subunit, mitochondrial, O88696 53-272 (natural protein; other documents disagree on this pair)", "values": [{"measurement": "stoichiometry N", "result": 7}]}]}
